Experimental findings from article doi:10.1101/2021.07.28.453719 are described below.

Common to all, as to experiment: ITC
Assay [1] deals with second bromodomain (BD2) of BRD4 (human).
In assay [2] the target is BRD2-L108AzF mutant (photo-responsive bromodomain analogue) (human).
Assay [3] deals with BRD3-L68AzF mutant (photo-responsive bromodomain analogue) (human) (UniProt Q15059).
The target in assay [4] is first bromodomain (BD1) of BRD2, wild type (human).
Assay [5] concerns the target BRDT-L61AzF mutant (photo-responsive bromodomain analogue) (human).
Assay [6] has as its target first bromodomain (BD1) of BRDT, wild type (human).

As to “ILF3 variant peptide AKacGALLKacG (aa 99-106) 15 carrying L102A”, the Kd in assay [1] is 57 µM.

In assay [1], “diacetylated ILF3 peptide 10 (AKacGLLLKacG)” gave a Kd of 33 µM.

Take “tetra-acetylated histone H4 peptide (H4Kac4) 2 (from UniProt P62805 2-22)”: the Kd in assay [2] was 93.5 µM; in assay [3], 14.2 µM; in assay [4], 27.8 µM; in assay [5] it was 13.5 µM; in assay [6] it was 13.7 µM.
